Results reported in patent publication US20180086829A1 (published 2018).

How the values were obtained:
[1] = molecular target: T1, human LILRB4 (human, UniProt Q8NHJ6 22-259, limits assumed); test: ELISA; lower end of the range, tied to #214 by Table 1
T1 construct: also called leukocyte immunoglobulin-like receptor subfamily B member 4

[2] = molecular target: T1, human LILRB4; test: ELISA; upper end of the range, tied to #216-1 by Table 1
[3] = molecular target: T1, human LILRB4; test: ELISA

B1: anti-LILRB4 rabbit monoclonal antibody #214 (antibody, V domains shown)
VH: QSVKESGGRLVTPGTPLTLTCTVSGFSLSSYWMHWVRQAPGKGLEWVGVVSVSGNFYYATWAKGRFTISKTSTTVDLKITSPTIEDTAFYFCTMSFALWGQGTLVTISS
VL: ELVMTQTASPVSAAVGGTVTINCQSSQSVYSNNNLGWLKQKPGQPPKELIYYASTLASGVPSRFKGSGSGTQFTLTISDLECDDAATYYCVGGYGCSSADCSVFGGGTEVEIK
notes: Rabbit monoclonal antibody
EC50 [1]: 0.05 nM

B2: anti-LILRB4 rabbit monoclonal antibody #216-1 (antibody, V domains shown)
VH: EQSVEESGGGLVKPGASLTLTCIASGFSFSSSYVMCWVRQAPGKGLELIACIHAGGSGSTYYASWAKGRFTISKTSSTTVTLQMTSLTAADTATYFCARYNYHFYYIGDYSDLWGPGTLVTVSS
VL: ELVMTQTPSSVSAAVGGTVTIKCQASEDIDSYLAWYQQKPGQRPKVLIYRASTLASGVPSRFKGSGSGTEFTLTISGLECDDAATYYCQQGWSNDVGSNAFGGGTKVEIK
notes: Rabbit monoclonal antibody
EC50 [2]: 0.3 nM

B3: anti-LILRB4 rabbit monoclonal antibody #78 (antibody, V domains shown)
VH: QSLQESGGRLVTPGTPLTLTCTVSGIDLSVYLMSWVRQSPGKGLEYIGFINSAGITAYATWAKGRFIISKTSTTVDLKVTSPTTEDTATYFCARNWIRLDLWGQGTLVTISS
VL: ELVLTQTPASVSAAVGGTVTISCQSSESIYKNYLSWFQQKPGQPPKLLIYETSKLASGVPSRFSGSGSGTQFTLTISDVQCDDAATYYCLGGYTNGRDTIFGGGTELEIK
notes: Rabbit monoclonal antibody; also called mAb 78; bin 1
EC50 [3]: 0.0808 nM
